# Test results from publication PMC10349056, “The combined action of the intracellular regions regulates FGFR2 kinase activity” (Communications Biology, 2023).
# Where no end group is shown, it is not given here.
# B1: FGFR2 juxtamembrane region (407-462), labelled with Atto 488 (peptide, UniProt P21802-3 407-462, looked up)
# chain: KPDFSSQPAVHKLTKRIPLRRQVTVSAESSSSMNSNTPLVRITTRLSSTADTPMLA
# modifications: also: labelled with Atto 488
# notes: FGFR2 (IIIb isoform) juxtamembrane region, residues 407-462; numbers count on: FGFR2IIIb (C1 isoform, 822 residues); also called JM; 407Juxtamembrane region462; source: synthetic peptide, bought: Genscript
# Columns and labels:
# Assay in all cases: MST; JM labelled with Atto 488, serial dilutions of KD titrated, 25 °C; 20 mM HEPES, 150 mM NaCl, 1 mM TCEP, 0.01% Tween 20, pH 7.5; the text calls the constant of KD^pY1 apparent (Kd,app)
# Conditions in all cases: both partners purified
# [1] = target: T1, FGFR2 kinase domain, phosphorylation state pY5 (UniProt P21802-3 465-764, Y734F (worked out from the printed order of phosphorylation), phosphotyrosine at 657, 587, 467, 589 and 658)
# T1 construct: FGFR2 (IIIb isoform) kinase domain, residues 465-764; numbers count on: FGFR2IIIb (C1 isoform, 822 residues); also called KD^pY5; source: E. coli BL21(DE3), purified (Talon, Superdex 75)
# T1 sequence (P21802 464-763 Y733F): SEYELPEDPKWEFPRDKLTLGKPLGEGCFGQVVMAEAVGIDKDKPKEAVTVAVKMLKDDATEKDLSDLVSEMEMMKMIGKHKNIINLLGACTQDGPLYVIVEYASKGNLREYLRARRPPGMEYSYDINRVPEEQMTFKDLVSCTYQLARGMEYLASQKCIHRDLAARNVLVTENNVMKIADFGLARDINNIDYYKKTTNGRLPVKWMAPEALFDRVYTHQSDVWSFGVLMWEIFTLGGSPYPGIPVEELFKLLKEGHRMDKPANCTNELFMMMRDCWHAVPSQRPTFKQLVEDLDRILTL
# [2] = target: T2, FGFR2 kinase domain, phosphorylation state pY4 (UniProt P21802-3 465-764, Y658F (worked out from the printed order of phosphorylation) | Y734F (worked …, phosphotyrosine at 657, 587, 467 and 589))
# T2 construct: FGFR2 (IIIb isoform) kinase domain, residues 465-764; numbers count on: FGFR2IIIb (C1 isoform, 822 residues); also called KD^pY4; source: E. coli BL21(DE3), purified (Talon, Superdex 75)
# T2 sequence (P21802 464-763 Y657F/Y733F): as the sequence (P21802 464-763 Y733F) above, with Y194F counted along it
# [3] = target: T3, FGFR2 kinase domain, phosphorylation state pY2 (UniProt P21802-3 465-764, Y467F (worked out from the printed order of phosphorylation) | Y589F (worked …, phosphotyrosine at 657 and 587))
# T3 construct: FGFR2 (IIIb isoform) kinase domain, residues 465-764; numbers count on: FGFR2IIIb (C1 isoform, 822 residues); also called KD^pY2; source: E. coli BL21(DE3), purified (Talon, Superdex 75)
# T3 sequence (P21802 464-763 Y466F/Y588F/Y657F/Y733F): as the sequence (P21802 464-763 Y733F) above, with Y3F, Y125F, Y194F counted along it
# [4] = target: T4, FGFR2 kinase domain K518I (catalytically inactive, non-phosphorylatable) (UniProt P21802-3 465-764, K518I)
# T4 construct: FGFR2 (IIIb isoform) kinase domain, residues 465-764; numbers count on: FGFR2IIIb (C1 isoform, 822 residues); also called KD^K518I; source: E. coli BL21(DE3), purified (Talon, Superdex 75)
# T4 sequence (P21802 464-763 K517I): as the sequence (P21802 464-763 Y733F) above, with K54I, F270Y counted along it
binder,measurement,setting,value
B1,Kd,[1],22.5 ± 1.8 µM
same,Kd,[2],10.2 ± 1.33 µM
same,Kd,[3],6.98 ± 0.877 µM
same,Kd,[4],13.4 ± 0.994 µM
